Data published in paper PMC4239081, “Differential Interaction Kinetics of a Bipolar Structure-Specific Endonuclease with DNA Flaps Revealed by Single-Molecule Imaging”.

Experiments:
PCNA (Pyrococcus abyssi) = PCNA (Pyrococcus abyssi) (UniProt Q9UYX8); conditions: cited from earlier work
NucS (PabNucS) [1] = molecular target: T1, NucS (PabNucS) (Pyrococcus abyssi, UniProt Q9V2E8 1-251); assay: single-molecule TIRF; 150 mM NaCl, 23 C; kon 0.04e6 M-1s-1, no significant binding; Imaging buffer B2: 20 mM HEPES, 150 mM NaCl (or 50 mM), 0.1 mg/ml casein Blocking Reagent; pH not given; 23 C without divalent cations, or 45 C with or without; conditions: protein: recombinant; tags: Alexa488 label; chain copies: 2; duplex; strands as printed not perfectly complementary
T1 sequence: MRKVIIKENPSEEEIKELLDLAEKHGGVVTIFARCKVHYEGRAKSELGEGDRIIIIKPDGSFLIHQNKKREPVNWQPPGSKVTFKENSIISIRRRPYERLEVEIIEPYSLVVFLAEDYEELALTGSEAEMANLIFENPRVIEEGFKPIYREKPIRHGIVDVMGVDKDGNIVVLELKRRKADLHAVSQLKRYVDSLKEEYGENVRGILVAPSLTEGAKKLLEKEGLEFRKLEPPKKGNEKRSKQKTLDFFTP

NucS (PabNucS) [2] = molecular target: T1, NucS (PabNucS); assay: single-molecule TIRF (koff/kon); 50 mM NaCl, 23 C, no divalent cations; koff 0.52 s-1; Imaging buffer B2: 20 mM HEPES, 150 mM NaCl (or 50 mM), 0.1 mg/ml casein Blocking Reagent; pH not given; 23 C without divalent cations, or 45 C with or without; conditions: protein: recombinant; tags: Alexa488 label; chain copies: 2; label: Alexa488 on F3D47; 3' flap of 20 nt at ss/dsDNA junction; three strands
NucS (PabNucS) [3] = molecular target: T1, NucS (PabNucS); assay: single-molecule TIRF (koff/kon); 150 mM NaCl, 23 C, no divalent cations; koff 0.076 s-1; Imaging buffer B2: 20 mM HEPES, 150 mM NaCl (or 50 mM), 0.1 mg/ml casein Blocking Reagent; pH not given; 23 C without divalent cations, or 45 C with or without; conditions: protein: recombinant; tags: Alexa488 label; chain copies: 2; label: Alexa488 on F3D47; 3' flap of 20 nt at ss/dsDNA junction; three strands
NucS (PabNucS) [4] = molecular target: T1, NucS (PabNucS); assay: single-molecule TIRF (koff/kon); 45 C, no Mn2+, no PCNA; koff 0.027 s-1; Imaging buffer B2: 20 mM HEPES, 150 mM NaCl (or 50 mM), 0.1 mg/ml casein Blocking Reagent; pH not given; 23 C without divalent cations, or 45 C with or without; conditions: protein: recombinant; tags: Alexa488 label; chain copies: 2; label: Alexa488 on F3D47; 3' flap of 20 nt; three strands
[5] = molecular target: T2, NucS (PabNucS);PCNA (PabPCNA) (Pyrococcus abyssi;Pyrococcus abyssi, UniProt Q9V2E8;Q9UYX8 1-251;1-249, |); assay: single-molecule TIRF (koff/kon); 45 C, PCNA, 5 mM MnCl2 (cleaving); koff 0.85 s-1; Imaging buffer B2: 20 mM HEPES, 150 mM NaCl (or 50 mM), 0.1 mg/ml casein Blocking Reagent; pH not given; 23 C without divalent cations, or 45 C with or without; conditions: protein: recombinant;recombinant; tags: Alexa488 label;; chain copies: 2;3; label: Alexa488 on F3D47; 3' flap of 20 nt; three strands
T2 sequence 1: T1 sequence
T2 sequence 2: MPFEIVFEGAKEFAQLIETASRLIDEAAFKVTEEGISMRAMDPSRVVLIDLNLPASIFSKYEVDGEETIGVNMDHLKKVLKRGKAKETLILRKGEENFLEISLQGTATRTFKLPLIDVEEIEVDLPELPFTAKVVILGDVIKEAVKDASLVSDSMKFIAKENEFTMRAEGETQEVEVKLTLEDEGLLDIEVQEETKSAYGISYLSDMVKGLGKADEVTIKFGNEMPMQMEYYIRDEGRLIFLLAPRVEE

[6] = molecular target: T2, NucS (PabNucS);PCNA (PabPCNA); assay: single-molecule TIRF (koff/kon); 45 C, 50 nM PCNA, no Mn2+; koff 0.55 s-1; Imaging buffer B2: 20 mM HEPES, 150 mM NaCl (or 50 mM), 0.1 mg/ml casein Blocking Reagent; pH not given; 23 C without divalent cations, or 45 C with or without; conditions: protein: recombinant;recombinant; tags: Alexa488 label;; chain copies: 2;3; label: Alexa488 on F3D47; 3' flap of 20 nt; three strands
NucS (PabNucS) [7] = molecular target: T1, NucS (PabNucS); assay: single-molecule TIRF (koff/kon); 45 C, no Mn2+, no PCNA; koff 0.50 s-1; Imaging buffer B2: 20 mM HEPES, 150 mM NaCl (or 50 mM), 0.1 mg/ml casein Blocking Reagent; pH not given; 23 C without divalent cations, or 45 C with or without; conditions: protein: recombinant; tags: Alexa488 label; chain copies: 2; label: Alexa488 on F5D42; 5' flap of 20 nt; three strands; D27 as printed has a mismatch to 49N
[8] = molecular target: T2, NucS (PabNucS);PCNA (PabPCNA); assay: single-molecule TIRF (koff/kon); 45 C, PCNA, no Mn2+; koff 0.90 s-1; Imaging buffer B2: 20 mM HEPES, 150 mM NaCl (or 50 mM), 0.1 mg/ml casein Blocking Reagent; pH not given; 23 C without divalent cations, or 45 C with or without; conditions: protein: recombinant;recombinant; tags: Alexa488 label;; chain copies: 2;3; label: Alexa488 on F5D42; 5' flap of 20 nt; three strands; D27 as printed has a mismatch to 49N
[9] = molecular target: T2, NucS (PabNucS);PCNA (PabPCNA); assay: single-molecule TIRF (koff/kon); 45 C, PCNA, 5 mM MnCl2 (cleaving); koff 0.67 s-1; Imaging buffer B2: 20 mM HEPES, 150 mM NaCl (or 50 mM), 0.1 mg/ml casein Blocking Reagent; pH not given; 23 C without divalent cations, or 45 C with or without; conditions: protein: recombinant;recombinant; tags: Alexa488 label;; chain copies: 2;3; label: Alexa488 on F5D42; 5' flap of 20 nt; three strands; D27 as printed has a mismatch to 49N
NucS (PabNucS) [10] = molecular target: T1, NucS (PabNucS); assay: single-molecule TIRF (koff/kon); 150 mM NaCl, 23 C, no divalent cations; koff 0.026 s-1; Imaging buffer B2: 20 mM HEPES, 150 mM NaCl (or 50 mM), 0.1 mg/ml casein Blocking Reagent; pH not given; 23 C without divalent cations, or 45 C with or without; conditions: protein: recombinant; tags: Alexa488 label; chain copies: 2; label: Alexa488 on F5D42; 5' flap of 20 nt at ss/dsDNA junction; three strands; D27 as printed has a mismatch to 49N
NucS (PabNucS) [11] = molecular target: T1, NucS (PabNucS); assay: single-molecule TIRF (koff/kon); 50 mM NaCl, 23 C, no divalent cations; koff 0.35 s-1; Imaging buffer B2: 20 mM HEPES, 150 mM NaCl (or 50 mM), 0.1 mg/ml casein Blocking Reagent; pH not given; 23 C without divalent cations, or 45 C with or without; conditions: protein: recombinant; tags: Alexa488 label; chain copies: 2; label: Alexa488 on F5D42; 5' flap of 20 nt at ss/dsDNA junction; three strands; D27 as printed has a mismatch to 49N

## NucS (from UniProt Q9V2E8)
PCNA (Pyrococcus abyssi)
  Kd: 15 nM

B1: dsDNA (40N/40NC) (dsDNA)
DNA 1: CCTGCACGAATTAAGCAATTCGATATCATGGTCATAGCT
DNA 2: AGCTATGACCATGATTACGAATTGCTTAATTCGTGCAGG
modifications: biotin? (immobilized)
NucS (PabNucS) [1]
  binding result: no binding

B2: 3'-flap (49N/F3D47/D22) (structured_DNA)
DNA 1: AGCTACCATGCCTGCACGAATTAAGCAATTCGTAATCATGGTCATAGCT
DNA 2: AGCTATGACCATGATTACGAATTGCTTGGAATCCTGACGAACTGTAG
DNA 3: AATTCGTGCAGGCATGGTAGCT
modifications: biotin (two at each end of 49N)
NucS (PabNucS) [2]
  Kd: 17.7 ± 0.4 nM
NucS (PabNucS) [3]
  Kd: 7.8 ± 0.3 nM

B3: 3'-flap, one biotin (45 C) (structured_DNA)
DNA 1: B2 DNA 1
DNA 2: B2 DNA 2
DNA 3: AATTCGTGCAGGCATGGTAGCT
modifications: one biotin at the extremity
NucS (PabNucS) [4]
  Kd: 12 ± 3 nM
[5]
  Kd: 250 ± 47 nM
[6]
  Kd: 161 ± 29 nM

B4: 5'-flap, one biotin (45 C) (structured_DNA)
DNA 1: B2 DNA 1
DNA 2: GATGTCAAGCAGTCCTAAGGAATTCGTGCAGGCATGGTAGCT
DNA 3: AGCTATGATCATGATTACGAATTGCTT
modifications: one biotin at the extremity
NucS (PabNucS) [7]
  Kd: 625 ± 470 nM
[8]
  Kd: 195 ± 20 nM
[9]
  Kd: 145 ± 15 nM

B5: 5'-flap (49N/F5D42/D27) (structured_DNA)
DNA 1: B2 DNA 1
DNA 2: B4 DNA 2
DNA 3: AGCTATGATCATGATTACGAATTGCTT
modifications: biotin (two at each end of 49N)
NucS (PabNucS) [10]
  Kd: 2.6 ± 0.2 nM
NucS (PabNucS) [11]
  Kd: 9.4 ± 0.4 nM
